{
  "source": "patent US20220403048A1",
  "about": "“BINDING MOLECULES TO ARGINASE II [ARG2]” (Cancer Research Technology Limited, priority 2019, published 2022)",
  "molecules": {"B1": {"name": "C0020065: anti-ARG2 antibody, alternate lead isolation clone, VH SEQ ID NO: 2, VL SEQ ID NO: 7 (antibody, listed as Homo sapiens, V domains shown)", "VH": "GVNLRESGGGVVQPGRSLRLSCAASGFTFSSYAMHWVRQAPGKGLEWVAVISYDGSNKYYVDSVKGRFTISRDNSKNTLYLQMNSLRAEDTAVYYCARDSSQLWFDYWGRGTLVTVSS", "VL": "QSVVTQPPSVSGAPGQRVTISCTGSSSNIGTGYDVHWYQQLPGTAPKLLIYGNSNRPSGVPDRFSGSKSGTSASLAITGLQAEDEADYYCQSYDSSLSGSVVFGGGTQLTVL", "modifications": "C0020065"}},
  "biological_target": "T1, THP-1 lysate derived human trimeric ARG2 (Homo sapiens, UniProt P78540)",
  "T1 construct": "expressed in transfected cells; host or cells: THP-1 cells overexpressing human ARG2 (cell lysate)",
  "T1 sequence (P78540 23-354)": "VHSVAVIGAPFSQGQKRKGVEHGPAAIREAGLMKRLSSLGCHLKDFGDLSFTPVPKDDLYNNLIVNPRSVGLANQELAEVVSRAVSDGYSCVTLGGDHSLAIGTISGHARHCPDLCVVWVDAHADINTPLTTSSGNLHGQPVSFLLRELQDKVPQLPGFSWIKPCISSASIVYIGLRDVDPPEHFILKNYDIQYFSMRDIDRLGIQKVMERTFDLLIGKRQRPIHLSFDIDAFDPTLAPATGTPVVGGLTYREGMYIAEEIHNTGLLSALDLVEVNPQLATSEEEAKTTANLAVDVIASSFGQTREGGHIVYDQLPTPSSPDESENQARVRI",
  "experiment": "ELISA binding to THP-1 lysate derived human ARG2",
  "settings": "biotinylated recombinant human IgG1, FIG. 6",
  "protocol": "C0020187 and C0020065 IgGs were tested for their ability to bind to mammalian expressed human ARG2 produced in transfected THP-1 cells. Lysates of human ARG2 transfected THP-1 cells were prepared and binding to these lysates measured using an ELISA.\nCell lysates were prepared from THP-1 cells overexpressing human ARG2 and from wild type THP-1 cells. Between 600,000-1,000,000 cells were suspended in 1 ml tris-buffered saline (25 mM tris+150 mM sodium chloride in dH2O, pH 7.4) and cell lysates prepared using QIAshredders (QIAgen, UK; cat: 79654).\nFor the ELISA, maxisorp white plates (Nunc; cat: 437796) were coated overnight at 4° C. with rabbit anti-human ARG2 antibody (Abcam, ab137069) at 1 μg/ml in PBS. The next day, the plate was washed with PBS and blocked with casein blocker (Thermo Scientific, 37528). […]\nThe blocked ELISA plate was washed with PBS and 50 μl of the pre-incubation mixtures were transferred to the ELISA plate and incubated for 90 minutes at room temperature. […] Next, 100 μl PICO ELISA substrate (Thermo Scientific, 37070) was added to each well, the plate was incubated for 1 minute at room temperature in the dark before being read for luminescence using the Envision plate reader. Data were analysed using GraphPad Prism. […]",
  "data": [
    {"molecule": "B1", "values": [
      {"measurement": "binding to THP-1 lysate derived human trimeric ARG2", "value": "strong binding"}
    ]}
  ]
}
